Laboratory results from US20090158456.

Tests used:
[1] = test system: recombinant GST-CcHQT fusion protein (pGTPc103a_HQT)
[2] = test system: recombinant GST-CcHCT fusion protein (pGTPc103a_HCT)

AcTEV protease
SDS PAGE gel electrophoresis and coomassie staining after AcTEV digestion [1]: generate a smaller polypeptide with the expected molecular weight of the full length proteins from each of the GST-tagged "precursor" proteins
SDS PAGE gel electrophoresis and coomassie staining after AcTEV digestion [2]: generate a smaller polypeptide with the expected molecular weight of the full length proteins from each of the GST-tagged "precursor" proteins
